# In article PMC5762396 (Archives of biochemistry and biophysics, 2017):
# B1: Tmod2[L73D] (natural protein)
# chain: MALPFQKGLEKYKNIDEDELLGKLSEEELKQLENVLDDLDPESATLPAGFRQKDQTQKAATGPFDREHLLMYDEKEALEQKDREDFVPFTGEKKGRVFIPKEKPVETRKEEKVTLDPELEEALASASDTELYDLAAVLGVHNLLNNPKFDEETTNGEGRKGPVRNVVKGEKAKPVFEEPPNPTNVEASLQQMKANDPSLQEVNLNNIKNIPIPTLKEFAKSLETNTHVKKFSLAATRSNDPVALAFAEMLKVNKTLKSLNVESNFITGTGILALVEALRENDTLTEIKIDNQRQQLGTAVEMEIAQMLEENSRILKFGYQFTKQGPRTRVAAAITKNNDLVRKKRVEGDRR
# B2: Tmod2_(1-346) (domain or fragment)
# chain: MALPFQKGLEKYKNIDEDELLGKLSEEELKQLENVLDDLDPESATLPAGFRQKDQTQKAATGPFDREHLLMYLEKEALEQKDREDFVPFTGEKKGRVFIPKEKPVETRKEEKVTLDPELEEALASASDTELYDLAAVLGVHNLLNNPKFDEETTNGEGRKGPVRNVVKGEKAKPVFEEPPNPTNVEASLQQMKANDPSLQEVNLNNIKNIPIPTLKEFAKSLETNTHVKKFSLAATRSNDPVALAFAEMLKVNKTLKSLNVESNFITGTGILALVEALRENDTLTEIKIDNQRQQLGTAVEMEIAQMLEENSRILKFGYQFTKQGPRTRVAAAITKNNDLVRKKRV
# Target: G-actin (WT α-skeletal muscle actin from chicken) (chicken, UniProt P68139 1-377)
# Experiment: atomic force microscopy
row,Binder,peak value of unbinding force
1,B1,105 ± 2.2 pN
2,B2,64 ± 3.6 pN
